According to the nanobody polyreactivity screen of Harvey et al. (2022):

Test: yeast display, Sf9 membrane polyspecificity reagent, FACS + sequencing; frameworks hold sequencing errors
In short: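 Polyreactivity labels are assigned by the sorting gate from which each nanobody was recovered. The gates were low and high (top ~1%), set on anti-HA fluorescence for expression and streptavidin fluorescence for reagent binding. Before sorting, galactose-induced (36–48 hours) yeast display cells were stained for 1 hour at 4 °C with 10% biotinylated, detergent-solubilized Sf9 membrane reagent.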

Row | Sequence | polyreactivity (PSR sort gate)
1 | QVQLVESGGGLVQAGGSLRLSCAASGSTFAGYVMGWYRQAPGKERELVAAISRSGGSTYYADSVKGRFTISRDNAKNTVYLQMNSLKPEDTAVYYCAARNSPGLPGDYWGQGTQVTVSS | high polyreactivity
2 | QVQLVESGGGLVQAGGSLRLSCAASGSTFAIDAMGWDRQAPGQDRELVASISGGSTNYADSVKGRVTISRDKAKNTVDLQRNSLKPEDTAVYYCAARGALQHWYRYDYWGQGTQGTVSS | low polyreactivity
3 | QVQLVESGGGLVQAGGSLRLSCAASGSTFAINARGWYRQAPGKERELVAAISSSGSTNYADSVKGRFTISRDNAKITVYLQMNSLKPEDTAVYYCAATGYRVYGFEFGYWGQGTQVTVSS | low polyreactivity
4 | QVQLVESGGGLVQAGGSLRLSCAASGSTFAKNAMGWYRQAPGKERELVAAISRGGNTYYADSVKGRFTISRDNAKNTVYLHMNSLKPEDTAVYYCAKLPYTRTYLGSLYDYWGQGTQVTVSS | high polyreactivity
5 | QVQLVESGGGLVQAGGSLRLSCAASGSTFAKYAMGWYRQAPGKERELVAVITSGGSTYYADSVKGRFTISRDNAKNTVYLQMNSLKPEDTAVYYCAAAVRAWARRYDYWGQGTQVTVSS | high polyreactivity
6 | QVQLVESGGGLVQAGGSLRLSCAASGSTFALNAMGWYRQAPGKERELVADINYIGDSTYYADSVKGRFTISRDNAKNTVYLLMNSLKPEDTAVYYCAAKSIIRPYAPRRDDMDYWGQGTQVTVSS | low polyreactivity
7 | QVQLVESGGGLVQAGGSLRLSCAASGSTFAPNAMGWYRQAPGKEREFVATISASGGYTYYADSVKGRFTISRDNAKNTVYLQMNSLKPEDTAVYYCYAVWRVGRQLSQAKIPYDYWGQGTQVTVSS | low polyreactivity
8 | QVQLVESGGGLVQAGGSLRLSCAASGSTFAPNAMGWYRQAPGKERELVAAISSGGDSTNYADSVKGRFTISRDNAKNTVYLQMNSLKPEDTAVYYCAHGYWFVAYDYWGQGTQVTVSS | low polyreactivity
9 | QVQLVESGGGLVQAGGSLRLSCAASGSTFAPNAMGWYRQAPGKERELVAVITRSVGSTYYADSVKGRFTISRDNSKNTVYLKMNSLKPEDTAVYFCAADYLRQDDYVALDYWGQGTQVTVSS | low polyreactivity
10 | QVQLVESGGGLVQAGGSLRLSCAASGSTFAQNAMGWYILAPGKERELVAAISRRGTITNYADSVKGRFTISRDNEKITVYLQMYSLKPEDTAVYYCATRSWLLGIQGGYWGQGTQVTVSS | high polyreactivity
11 | QVQLVESGGGLVQAGGSLRLSCAASGSTFARNAMGWYRQAPGKEREFVATISSSGGRTYYADSVKGRFTISRDIAKNTVYLQMNSLNPEDTAVYYCNKALRTYPLFYYWGQGTQVTVSS | high polyreactivity
12 | QVQLVESGGGLVQAGGSLRLSCAASGSTFARNVMGWYRQAPGKERELVAAISWRGGRTYYADSVKGRFTISRDNAKNTVYLQMNSLKPEDTAVYYCAAGRSFRGSYWYEYWGQGTKVTVSS | high polyreactivity
13 | QVQLVESGGGLVQAGGSLRLSCAASGSTFARYAMGWYRQAPGKERELVAAITWSGGSTYYADSVKGRFTISRDNAKNTVYLQMNSLKPEDTAVYYCAARRRVGYYWGQGTQVTVSS | high polyreactivity
14 | QVQLVESGGGLVQAGGSLRLSCAASGSTFASYAMGWYRQAPGKERELVAAISSSGARTYYADSVKGRFTISRDNAKNTVYLQMNSLKPEDTAVYYCATDSKITETSLRYDYWGQGTQVTVSS | high polyreactivity
15 | QVQLVESGGGLVQAGGSLRLSCAASGSTFATYAMGWYRQAPGKERELVAAITRSGGITYYADSVKGRFTISRDNAKNTVYLQMNSLKPEDNAVYYCAKQYKWYGSRFYYWGQGTQVTVSS | high polyreactivity
16 | QVQLVESGGGLVQAGGSLRLSCAASGSTFATYAMGWYRQAPGKERELVAVITLGGRTYYADSVKGRFTISRDNAKNTVYLQMNSLKPEDTAVYYCAAKAYTYYARIGFDYWGQGTQVTVSS | high polyreactivity
17 | QVQLVESGGGLVQAGGSLRLSCAASGSTFATYTMGWYRQAPGKERELVAAITRGSNTYYADSVKGRFTISRDNAKNTVDLQMNSLKPEHTAVYYCAAGYSGYRKYNSWGQGTQVTVSS | high polyreactivity
18 | QVQLVESGGGLVQAGGSLRLSCAASGSTFAVIVMGWYRQAPGKERELVATITYRDGRTYYADSVKGRFTISRDNAKNTVYLQMNSLKPEDTAVYYCAADDEYKQEAEMDSWGQGTQVTVSS | low polyreactivity
19 | QVQLVESGGGLVQAGGSLRLSCAASGSTFAVNAMGWYRQAPGKERELVAAITGSGGSTYYADSVKGRFTISRDNAKNTVYLQMNSLKPEDTAVYYCAAYRRYGYYYWGQGTQVTVSS | low polyreactivity
20 | QVQLVESGGGLVQAGGSLRLSCAASGSTFAVNVMGWYRQAPGKERELVATITYRDGRTYYADSVKGRFTISRDIAKYTVFLQMNSLKPEDTAVYYCAADDEYTQEAEMDSWGQGTQVTVSS | low polyreactivity
21 | QVQLVESGGGLVQAGGSLRLSCAASGSTFAVNVMGWYRQAPGKERELVATITYRDGRTYYADSVKGRFTISRDNAKNTVYLQMNSLKPEDTAVYYCAADDEYKQEAEMDSWGQGTQVTVSS | low polyreactivity
22 | QVQLVESGGGLVQAGGSLRLSCAASGSTFAVYAMGWSRKAPGKERELVATIRWSAGRTYYADSVKGRFTISRDNAKNTVYLQMNSLKPEDTAVYYCAARTWGQSTYGQGLDYWGQGTQVTVSS | high polyreactivity

Row | Sequence | polyreactivity (PSR sort gate)
23 | QVQLVESGGGLVQAGGSLRLSCAASGSTFAVYAMGWYRQAPGKERELVAAITRGDRTYYADSVKGRFTISRDNAKNTVYLQMNSLKPEDTAVYYCAAGYYRLWVRYDYWGQGTQVTVSS | low polyreactivity
24 | QVQLVESGGGLVQAGGSLRLSCAASGSTFAVYAMGWYRQAPGKVRELVAAMRYSGGSTYADSVKGRFTISRDNAKNTVYLQMNSLKPEDTAVYYCAAYVYSLGGEYGYWGQGTHVTVSS | high polyreactivity
25 | QVQLVESGGGLVQAGGSLRLSCAASGSTFAVYTMGWYRQAPGKERELSTSYADSVKGRFTISRDNAKNTVYLQMNSLKPEDTAVYYCNRDFYEFDSNSYRFDYWGQGTQVTVSS | low polyreactivity
26 | QVQLVESGGGLVQAGGSLRLSCAASGSTFAWNAMGWDRQAPGKERELVAAISKSGGSTYYADSVKGRFTISRDNAKNTVYLQMNSLKPEDTAVYYCAASGTVYARVRYYYWGQGTQVTVSS | high polyreactivity
27 | QVQLVESGGGLVQAGGSLRLSCAASGSTFAWYAMGWYRQAPGKERELVAGIWNTGRTYYADSVKGRFTISRDNAKNTVYLLMHSLKPEDTAVYYCAALYNSPNVTYYYWGQGTQVTVSS | high polyreactivity
28 | QVQLVESGGGLVQAGGSLRLSCAASGSTFAWYAMGWYRTAPGKERELVAAISRTGRTYYADSVKGRFTMSRDNAKNTVYLQMNSLKPEDTAVYYCAARIERFYRDQRYDYWGQGTQVTVSS | high polyreactivity
29 | QVQLVESGGGLVQAGGSLRLSCAASGSTFAYNDMGWYRQAPGKERDLVADIRYGGNTNYADSVKGRFTISRDNAKNTDYFQMNSLKPVDTSVYYCATDGYRSDVYHPDYRYDYWGQCTQVTVSS | low polyreactivity
30 | QVQLVESGGGLVQAGGSLRLSCAASGSTFAYNTMGWYRQAPGKDRELVAAISQRGGSTYADSVKGRFTISRDNAKNTVYLQMNSLKPEDNAVYYCAADGYTYKFDYWGQGTQVTVSS | low polyreactivity
31 | QVQLVESGGGLVQAGGSLRLSCAASGSTFAYYAMGWYRPAPGKERELVAVISVRGGSTYYAESVKGRFTISRDNAKNTVYLQMNSLKPEDTAVYYCAADTFAGYYYWGQGTQVTVSS | high polyreactivity
32 | QVQLVESGGGLVQAGGSLRLSCAASGSTFAYYAMGWYRPAPGTERELVAAISKSGGSTYYADSVKGRFTISRDNAKNTFYIQMISLKPEDTAVYYCAAGKFRYRSRFDFWGQGTQVTVSS | high polyreactivity
33 | QVQLVESGGGLVQAGGSLRLSCAASGSTFAYYAMGWYRPAPGTERELVAAISSGGSTYYADSVKGRFTISRDNAKNTVYLQMNSLKPEDTAVYYCAADAVKASVSYIVPYAAYDYWGQGTQVTVSS | low polyreactivity
34 | QVQLVESGGGLVQAGGSLRLSCAASGSTFAYYAMGWYRQAPGKEREFVAVINWRGGSTYYADSVKGRFTISRDNAKNTVYLQMNSLKQEDTAVYYCNGRSGGYYYGFDYWGQGTQVTVSS | low polyreactivity
35 | QVQLVESGGGLVQAGGSLRLSCAASGSTFAYYAMGWYRQAPGKERELVAAISVSGGRTYYADSVKGRFTISRDNAKNTVYLQMNSLKPEDTAVYYCAKRFIYGRYNYWGQGTQVTVSS | high polyreactivity
36 | QVQLVESGGGLVQAGGSLRLSCAASGSTFAYYAMGWYRQAPGKERELVAAITIDGRTSYADSVKGRFTISRDNAKNTVYLQMNSLKAEDTAVYYCAADSSAWLYDYWGQGTQVTVSS | low polyreactivity
37 | QVQLVESGGGLVQAGGSLRLSCAASGSTFAYYAMGWYRQAPGKERELVAGISGSGGSTYYADSVKGRFTISRDNAKNTVYLQLNSLKPEDTAVYYCAVVQRSKRTYPWYDYWGQGTQVTVSS | low polyreactivity
38 | QVQLVESGGGLVQAGGSLRLSCAASGSTFAYYAMGWYRQAPGKERELVASISWRGGSTYYAESVKGRFTISRDNAKNTVYLQMNSLKPEDTAVYYCAAGRFYTWSRSQEYDYWGQGTQVTVSS | low polyreactivity
39 | QVQLVESGGGLVQAGGSLRLSCAASGSTFAYYTMGWYRQAPGKERELVAAISKSGGSTTYADSVKGRFTISRDNAKNTVYLQMNSLKPEETAVYYCAAARKYYGYNYWGQGTQVTVSS | high polyreactivity
40 | QVQLVESGGGLVQAGGSLRLSCAASGSTFDANAMGWYRQAPGKERELVAAISSSGVRTYYADSVKGRFTISRDNAKNTVYLQMNSLKPEDTAVYYCAAGVVISTVDVTYGYWGQGTQVTVSS | low polyreactivity
41 | QVQLVESGGGLVQAGGSLRLSCAASGSTFDANAMGWYRQAPGKERELVATISDGGSTNYADSVKGRFTISRDNAKNTVYLQMNSLKPEDTAVYYCAAVKLFLGLGYDYWGQGTQVTVSS | low polyreactivity
42 | QVQLVESGGGLVQAGGSLRLSCAASGSTFDANAMGWYRQAPGKERELVATISDGGSTNYADSVKGRFTISRDNAKNTVYVQMNSLKPEDTAVYYCAAVKLFLGLGYDYWGQGTEVTVSS | low polyreactivity
43 | QVQLVESGGGLVQAGGSLRLSCAASGSTFDAYAMGWCRQAPGTERELVAAITNAGSTNYADSVKGRFTISRDNAKNTVYLQMNSLKPEDTAVYYCATDWYHRYLDGRYDYWVQGTQVTVSS | low polyreactivity
